Reference: patent publication US12103957B2, “NYESO TCR” (MEDIGENE IMMUNOTHERAPIES GMBH, priority 2018, dated 2024)

Experiments:
Type in all cases: cell-based, human
peptide-loaded T2 cells [1] = assay: IFN-γ ELISA, peptide-loaded T2 controls of the tumor cell line panel
Source text: (§1) IFN-γ ELISA was used to assess cytokine secretion upon stimulation of T11.8-10-17-transduced T cells (CD8_T11.8-10-17) with a panel of HLA-A*02:01 positive, NY-ESO-1/LAGE-1 positive human tumor cell lines (Me1624.38, FM6, FM3.29, MM415, SAOS2, U266). NY-ESO-1/LAGE-1 expression in the target cells was detected by NanoString nCounter® analysis. As positive control for T11.8-10-17-transduced T cells, T2 cells were loaded with SLL-peptide (10^−5 M). As negative controls for the effector function, T11.8-10-17-transduced T cells were co-cultured with T2 cells loaded with irrelevant (FTV) peptide (10^−5M), SK-Me123 (HLA-A2pos, NY-ESO-1/LAGE-1neg) or SKM1 (HLA-A2pos, NY-ESO-1/LAGE-1neg), or untransduced T cells were co-cultured with tumor cells or peptide-loaded T2 cells. Cultivation of target cells without effector cells served as an additional negative control. Target cells were co-cultured with T cells at a ratio of 2:1 using 40,000 T11.8-10-17-transduced T cells and 20,000 target cells. (FIG. 3).

[2] = tested on: SK-Me123 tumor cell line (HLA-A*02 positive, NY-ESO-1/LAGE-1 negative); assay: Killing of tumor cells, Annexin V live-cell imaging (IncuCyte ZOOM); settings: antigen-negative target line; effector-to-target about 4:1; 67 hours
Method: (§2) The killing capacity of T11.8-10-17- or benchmark-TCR-transduced CD8^+ T cells (CD8-T11.8-10-17 or CD8 benchmark-TCR) was evaluated by co-culturing with the HLA-A*02 positive NY-ESO-1/LAGE-1 positive tumor cell line Me1624.38 (FIG. 2a). In addition, killing of CD8-T11.8-10-17 was also tested with the HLA-A*02 positive NY-ESO-1/LAGE-1 positive tumor cell line MM415 (FIG. 2b). As a negative control, untransduced CD8^+ enriched PBMC were used as effector cells (CD8 UT) or the HLA-A*02 positive but NY-ESO-1/LAGE-1 negative tumor cell line SK-Me123 was used as target cells. The co-cultures were set-up at an effector-to-target ratio of about 4:1, i.e. 10,000 adherent tumor cells were seeded one day prior to the co-culture and subsequently 40,000 transgenic TCR^+ T cells were added. An increase of red fluorescent target cells (Total Integrated Intensity in GCU×μm^2/Image) that indicates induction of apoptosis of target cells (Annexin V, red), was measured every four hours over a total time period of 67 hours using live-cell monitoring (IncuCyte® ZOOM).

[3] = tested on: MM415 tumor cell line (HLA-A*02 positive, NY-ESO-1/LAGE-1 positive); assay: as above; settings: TCR-transduced CD8+ T cells, effector-to-target about 4:1
Method: as §2

[4] = tested on: Me1624.38 tumor cell line (HLA-A*02 positive, NY-ESO-1/LAGE-1 positive); assay: as above; settings: TCR-transduced CD8+ T cells, effector-to-target about 4:1
Method: as §2

Me1624.38 = assay: IFN-γ ELISA, stimulation by tumor cell lines; settings: transduced CD8+ T cells 40,000, target cells 20,000
Source text: as §1

SAOS2 = assay: IFN-γ ELISA, stimulation by tumor cell lines; settings: transduced CD8+ T cells 40,000, target cells 20,000
Source text: as §1

U266 = assay: IFN-γ ELISA, stimulation by tumor cell lines; settings: transduced CD8+ T cells 40,000, target cells 20,000
Source text: as §1

[5] = tested on: SKM1 (HLA-A2pos, NY-ESO-1/LAGE-1neg); assay: IFN-γ ELISA, stimulation by tumor cell lines; settings: antigen-negative line; transduced CD8+ T cells 40,000, target cells 20,000
Source text: as §1

[6] = tested on: SK-Me123 (HLA-A2pos, NY-ESO-1/LAGE-1neg); assay: IFN-γ ELISA, stimulation by tumor cell lines; settings: antigen-negative line; transduced CD8+ T cells 40,000, target cells 20,000
Source text: as §1

FM6 = assay: IFN-γ ELISA, stimulation by tumor cell lines; settings: transduced CD8+ T cells 40,000, target cells 20,000
Source text: as §1

FM3.29 = assay: IFN-γ ELISA, stimulation by tumor cell lines; settings: transduced CD8+ T cells 40,000, target cells 20,000
Source text: as §1

MM415 = assay: IFN-γ ELISA, stimulation by tumor cell lines; settings: transduced CD8+ T cells 40,000, target cells 20,000
Source text: as §1

[7] = tested on: HLA-A*02:01-transgenic K562 cells; assay: Recognition of ivtRNA mismatched epitopes: IFN-γ ELISA with HLA-A*02:01-transgenic K562 cells; settings: 16 hours
Method: For this experiment, 3×10^6 K562 cells in 300 μl RPMI1640 medium were electroporated with 20 μg either NY-ESO-1 or eGFP-ivtRNA (300 Volt and 300 μF; exponential pulse). As positive control, T cells were stimulated with HLA-A*02:01-transgenic K562 cells loaded with either the SLL-peptide (10^−5M) (K562-A2+SLL) or with 20 μg ivtRNA encoding NY-ESO-1 (K562-A2+NY-ESO-1). As a negative control HLA-A*02:01-transgenic K562 were either loaded with irrelevant peptide (10^−5M; K562-A2+FTV) or with 20 μg ivtRNA encoding eGFP (K562-A2+eGFP).

[8] = tested on: T2 cells loaded with NY-ESO-1/LAGE-1157-165 (SLL) peptide (T2(SLL)); assay: Secretion of MIP-1α and MIP-1β, multiplex assay (Milliplex MAP Kit); settings: T2(SLL) 10^−5 M; ratio 1:1, 10 000 cells each; 18 hours; two donors; compared with the other TCR
Method: As negative control, T11.8-10-17- or benchmark-transgenic CD8^+ T cells were stimulated with HLA-A*02:01 positive FTV-loaded T2 cells or untransduced CD8^+ enriched PBMC (CD8_ut) were co-cultured with peptide-loaded T2 cells. Furthermore, T2 cells or T cells were cultured separately.
Target cells and T cells were co-cultured at a ratio of 1:1 using 10 000 target cells and 10 000 T11.8-10-17- or benchmark-TCR-transduced T cells. Secretion of MIP-1α and MIP-1β by either T11.8-10-17- or benchmark-transgenic CD8^+ T cells was determined 18 hours after setting up the co-culture by multiplex assay using the Milliplex MAP Kit and analyzed by the MagPix analyzer.

peptide-loaded T2 cells [9] = assay: Recognition of mismatched epitopes: IFN-γ ELISA with peptide-loaded T2 cells; settings: ratio 1:1
Method: As a negative control, untransduced CD8^+ enriched PBMC (CD8_UT) were used as effector cells or TCR-transgenic T cells were stimulated with irrelevant (irr.; […]) peptide-loaded T2 cells (10^−5 M). Background IFN-γ secretion of target cells was also tested (targets only). As a positive control T cells were activated by SLL peptide (#10*)-loaded T2 cells (10^−5 M). […] IFN-γ secretion was measured by standard ELISA in [pg/mL].

B1: T11.8-10-17: TCR of T cell clone T11.8-10-17 specific for NY-ESO-1/LAGE-1157-165 on HLA-A*02:01; variable α SEQ ID NO: 10, variable β SEQ ID NO: 11 (protein, listed as Homo sapiens)
alpha: MKSLRVLLVILWLQLSWVWSQQKEVEQNSGPLSVPEGAIASLNCTYSDRGSQSFFWYRQYSGKSPELIMFIYSNGDKEDGRFTAQLNKASQYVSLLIRDSQPSDSATYLCAADDKIIFGKGTRLHILPN
beta: MGSWTLCCVSLCILVAKHTDAGVIQSPRHEVTEMGQEVTLRCKPISGHDYLFWYRQTMMRGLELLIYFNNNVPIDDSGMPEDRFSAKMPNASFSTLKIQPSEPRDSAVYFCASSRGGSGYTFGSGTRLTVVE
In the case of B1, the IFN-γ secretion (peptide-loaded T2 cells [1]; T2 cells loaded with SLL-peptide (10^−5 M)) is reported as “high amounts of IFN-γ secretion”, the “recognition (IFN-γ secretion)” value (peptide-loaded T2 cells [1]; T2 cells loaded with irrelevant (FTV) peptide (10^−5 M)) is reported as “no recognition” and the “killing of target cells (increase of red fluorescence, Annexin V)” value [2] is reported as “no increase of red fluorescence was observed”. The “start of increase of red fluorescence (killing)” value [3] was 10 h, the “killing of target cells (increase of red fluorescence, Annexin V)” value ([3]; 67 hours) was “showed killing” and the “start of increase of red fluorescence (killing)” value [4] was 10 h. For the same molecule, the “killing of target cells (increase of red fluorescence, Annexin V)” value ([4]; 67 hours) was “showed killing”, the IFN-γ secretion (Me1624.38) was “high amounts of IFN-γ secretion” and the IFN-γ secretion (SAOS2) was “high amounts of IFN-γ secretion”. For the same molecule, the IFN-γ secretion (U266) was “high amounts of IFN-γ secretion”, the “recognition (IFN-γ secretion)” value [5] was “no recognition” and the “recognition (IFN-γ secretion)” value [6] was “no recognition”. The IFN-γ secretion (FM6) was “high amounts of IFN-γ secretion”, the IFN-γ secretion (FM3.29) was “high amounts of IFN-γ secretion” and the IFN-γ secretion (MM415) was “high amounts of IFN-γ secretion”. The “cross-recognition of internally processed peptide (IFN-γ release)” value (“cross-recognition … (IFN-γ release)” below) ([7]; K562-A2+#3, ivtRNA long peptide) was “no cross-recognition”, the “cross-recognition … (IFN-γ release)” value ([7]; K562-A2+#6, ivtRNA long peptide) was “no cross-recognition” and the “cross-recognition … (IFN-γ release)” value ([7]; K562-A2+#11, ivtRNA long peptide) was “no cross-recognition”. For the same molecule, the “cross-recognition … (IFN-γ release)” value ([7]; K562-A2+#32, ivtRNA long peptide) was “no cross-recognition”, the “cross-recognition … (IFN-γ release)” value ([7]; K562-A2+#34, ivtRNA long peptide) was “no cross-recognition” and the “cross-recognition … (IFN-γ release)” value ([7]; K562-A2+#51, ivtRNA long peptide) was “no cross-recognition”. For the same molecule, the “recognition (IFN-γ release)” value ([7]; K562-A2+NYESO, NY-ESO-1-ivtRNA transfected) was “recognized”, the “recognition (IFN-γ release)” value ([7]; K562-A2+SLL, peptide-loaded 10^−5 M, target:T cell 2:1) was “recognized” and the “recognition (IFN-γ release)” value ([7]; K562-A2+eGFP ivtRNA) was “did not recognize”. For the same molecule, the “recognition (IFN-γ release)” value ([7]; K562-A2+irr., irrelevant peptide 10^−5 M) was “did not recognize”, the MIP-1α secretion [8] was “markedly lower amounts” and the MIP-1β secretion [8] was “markedly lower amounts”. For the same molecule, the “peptide recognition (IFN-γ secretion)” value (peptide-loaded T2 cells [9]; T2 + irrelevant peptide (FTVSGNILTI) 10^−5 M) was “not the irrelevant peptide”, the “cross-recognition (IFN-γ secretion)” value (peptide-loaded T2 cells [9]; T2 + peptide #3 10^−5 M) was “cross-recognized” and the “cross-recognition (IFN-γ secretion)” value (peptide-loaded T2 cells [9]; T2 + peptide #6 10^−5 M) was “slightly activated”. For the same molecule, the “cross-recognition (IFN-γ secretion)” value (peptide-loaded T2 cells [9]; T2 + peptide #11 10^−5 M) was “slightly activated”, the “cross-recognition (IFN-γ secretion)” value (peptide-loaded T2 cells [9]; T2 + peptide #32 10^−5 M) was “slightly activated” and the “cross-recognition (IFN-γ secretion)” value (peptide-loaded T2 cells [9]; T2 + peptide #34 10^−5 M) was “slightly activated”. For the same molecule, the “cross-recognition (IFN-γ secretion)” value (peptide-loaded T2 cells [9]; T2 + peptide #51 10^−5 M) was “slightly activated” and the “peptide recognition (IFN-γ secretion)” value (peptide-loaded T2 cells [9]; T2 + positive control peptide SLL (SLLMWITQC) 10^−5 M) was “recognized”.
